Measured values reported in article PMC2377106 (2003).
One block for each binder: values may come before it.

Tests used:
VEGFR2(ΔKD)m -20-809 [1] = target: T1, VEGFR2(ΔKD)m -20-809 (Homo sapiens, UniProt P35968); assay: competition RIA
T1 chain: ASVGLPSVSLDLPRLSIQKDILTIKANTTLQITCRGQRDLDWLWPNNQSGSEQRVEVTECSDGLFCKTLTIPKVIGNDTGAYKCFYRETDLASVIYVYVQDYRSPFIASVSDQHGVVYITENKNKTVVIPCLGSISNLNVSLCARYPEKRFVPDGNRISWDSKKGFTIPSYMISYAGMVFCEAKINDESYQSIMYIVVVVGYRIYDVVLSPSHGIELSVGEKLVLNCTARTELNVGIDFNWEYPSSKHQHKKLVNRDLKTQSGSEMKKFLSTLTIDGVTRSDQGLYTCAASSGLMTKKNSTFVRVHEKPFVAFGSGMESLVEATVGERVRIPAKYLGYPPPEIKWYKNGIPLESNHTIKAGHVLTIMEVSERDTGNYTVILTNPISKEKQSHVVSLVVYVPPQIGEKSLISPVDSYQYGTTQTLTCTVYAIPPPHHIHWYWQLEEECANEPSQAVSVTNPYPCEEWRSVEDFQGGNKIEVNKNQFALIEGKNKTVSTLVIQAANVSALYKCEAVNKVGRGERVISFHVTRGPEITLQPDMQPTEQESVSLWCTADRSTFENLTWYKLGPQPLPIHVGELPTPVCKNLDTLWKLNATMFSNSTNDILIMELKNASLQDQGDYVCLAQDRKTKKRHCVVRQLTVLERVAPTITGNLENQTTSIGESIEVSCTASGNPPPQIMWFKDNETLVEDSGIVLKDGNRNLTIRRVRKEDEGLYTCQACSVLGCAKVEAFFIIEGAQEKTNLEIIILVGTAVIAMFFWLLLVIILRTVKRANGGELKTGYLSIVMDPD

VEGFR2(ΔKD)m -20-809 [2] = target: T1, VEGFR2(ΔKD)m -20-809; assay: ELISA
VEGFR2(ΔKD)m -20-809 [3] = target: T1, VEGFR2(ΔKD)m -20-809; assay: solid-phase radioligand binding

B1: VEGF115-CPG2(Q)3-H6 1-115 (protein)
chain: MTDRQTDTAPSPSYHLLPGRRRTVDAAASRGQGPEPAPGGGVEGVGARGVALKLFVQLLGCSRFGGAVVRAGEAEPSGAARSASSGREEPQPEEGEEEEEKEEERGPQWRLGARK
modifications: fusion to N-terminus of CPG2(Q)3 (aa 23-415), H6 tag
- Kd (VEGFR2(ΔKD)m -20-809 [1]): 9.6 nM
- Kd (VEGFR2(ΔKD)m -20-809 [2]): 0.51 nM

B3: VEGF161-CPG2(Q)3-H6 1-161 (protein)
chain: MTDRQTDTAPSPSYHLLPGRRRTVDAAASRGQGPEPAPGGGVEGVGARGVALKLFVQLLGCSRFGGAVVRAGEAEPSGAARSASSGREEPQPEEGEEEEEKEEERGPQWRLGARKPGSWTGEAAVCADSAPAARAPQALARASGRGGRVARRGAEESGPPH
modifications: fusion to N-terminus of CPG2(Q)3 (aa 23-415), H6 tag
- Kd (VEGFR2(ΔKD)m -20-809 [1]): 3.3 nM
- Kd (VEGFR2(ΔKD)m -20-809 [2]): 1.06 nM

Other lines, results leading:

- Kd (VEGFR2(ΔKD)m -20-809 [3]): 0.51 nM
B2: [125I]VEGF (protein)
chain: MTDRQTDTAPSPSYHLLPGRRRTVDAAASRGQGPEPAPGGGVEGVGARGVALKLFVQLLGCSRFGGAVVRAGEAEPSGAARSASSGREEPQPEEGEEEEEKEEERGPQWRLGARKPGSWTGEAAVCADSAPAARAPQALARASGRGGRVARRGAEESGPPHSPSRRGSASRAGPGRASETMNFLLSWVHWSLALLLYLHHAKWSQAAPMAEGGGQNHHEVVKFMDVYQRSYCHPIETLVDIFQEYPDEIEYIFKPSCVPLMRCGGCCNDEGLECVPTEESNITMQIMRIKPHQGQHIGEMSFLQHNKCECRPKKDRARQEKKSVRGKGKGQKRKRKKSRYKSWSVPCGPCSERRKHLFVQDPQTCKCSCKNTDSRCKARQLELNERTCRCDKPRR
modifications: 125I-labelled VEGF

- Kd (VEGFR2(ΔKD)m -20-809 [1]): 1.3 nM
- Kd (VEGFR2(ΔKD)m -20-809 [2]): 0.75 nM
B4: CPG2(Q)3-VEGF109-H6 1-109 (protein)
chain: MTDRQTDTAPSPSYHLLPGRRRTVDAAASRGQGPEPAPGGGVEGVGARGVALKLFVQLLGCSRFGGAVVRAGEAEPSGAARSASSGREEPQPEEGEEEEEKEEERGPQW
modifications: fusion to C-terminus of CPG2(Q)3 (aa 23-415), H6 tag
